In this test the target is RAB1A (Homo sapiens (Human), UniProt P62820). Nature of the test: BLI. For orientation: Biolayer interferometry detects binding as a change in optical thickness at a sensor tip.
Sequence of RAB1A (P62820 6-177): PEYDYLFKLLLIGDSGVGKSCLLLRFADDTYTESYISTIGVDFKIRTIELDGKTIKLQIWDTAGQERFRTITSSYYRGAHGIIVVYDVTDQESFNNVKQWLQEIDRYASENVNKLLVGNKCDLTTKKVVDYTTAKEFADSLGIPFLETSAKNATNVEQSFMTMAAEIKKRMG

B1: WDR44 (protein)
chain: VMGPQRPRSNSGRELTDEEILASVMIKNLDTGEEIPLSLAEEKLPTGINPLTLHIM
B1: the Kd – broadly, a measure of binding affinity in units of concentration – was greater than 500 nM.

These data come from PMC9808001 (2022).
